The target in assay [1] is T1, cell-surface SIRPα (mDC) (human, UniProt P78324 31-504). In words: FACS blocking of CD47/SIRPα; Donor #296.
Assay [2] concerns the target T2, mDC cell surface SIRPα (human, UniProt P78324 31-504). The assay is described as follows: FACS binding; Donor #296.
The target of assay [3] is T2, mDC cell surface SIRPα. The assay is described as follows: FACS binding; Donor #298. A general note: A flow cytometer gives signals particle by particle.
The target in assay [4] is T1, cell-surface SIRPα (mDC). In words: FACS blocking of CD47/SIRPα; Donor #298.

T1 sequence (P78324 31-504): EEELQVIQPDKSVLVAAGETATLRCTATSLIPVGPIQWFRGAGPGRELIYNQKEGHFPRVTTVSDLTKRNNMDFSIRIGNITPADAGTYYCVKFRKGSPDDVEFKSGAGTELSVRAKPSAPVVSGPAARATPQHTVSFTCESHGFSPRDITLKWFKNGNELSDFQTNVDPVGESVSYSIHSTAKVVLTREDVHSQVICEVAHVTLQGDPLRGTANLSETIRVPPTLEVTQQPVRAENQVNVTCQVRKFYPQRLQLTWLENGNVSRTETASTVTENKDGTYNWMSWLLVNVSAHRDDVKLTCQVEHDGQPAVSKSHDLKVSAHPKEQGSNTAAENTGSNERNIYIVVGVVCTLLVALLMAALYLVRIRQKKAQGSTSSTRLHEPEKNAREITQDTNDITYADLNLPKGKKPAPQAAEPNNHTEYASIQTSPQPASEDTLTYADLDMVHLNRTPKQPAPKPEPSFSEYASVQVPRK
T2 sequence (P78324 31-504): as above

B1: OSE-172 (antibody, V domains shown)
VH: EVQLVQSGAEVKKPGESLRISCKASGYSFTSYWVHWVRQMPGKGLEWMGNIDPSDSDTHYSPSFQGHVTLSVDKSISTAYLQLSSLKASDTAMYYCVRGGTGTLAYFAYWGQGTLVTVSS
VL: DVVMTQSPLSLPVTLGQPASISCRSSQSLVHSYGNTYLYWFQQRPGQSPRLLIYRVSNRFSGVPDRFSGSGSGTDFTLKISRVEAEDVGVYYCFQGTHVPYTFGGGTKVEIKR
As usually defined, the IC50 is the midpoint of a concentration-inhibition curve. Lower therefore signals higher potency. The term EC50 denotes the concentration that produces a half-maximal response. Regarding B1, the figures for the IC50 in assay [1] and in assay [4] were 1.25 nM and 1.77 nM, respectively. Also, the EC50 in assay [2] was found to be 0.768 nM; in assay [3] it was 1.27 nM.

(Values after patent US20230340112A1 (published 2023).)
